For 66 substances, Peptide exchange results are on record in US20210340217A1, “NOVEL PEPTIDES AND COMBINATION OF PEPTIDES FOR USE IN IMMUNOTHERAPY AGAINST OVARIAN CANCER AND OTHER CANCERS” (Immatics Biotechnologies GmbH, priority 2017, published 2021).

In this assay the target is HLA-B*07:02 (Homo sapiens, UniProt P01889). Briefly: MHC binding assay (UV-ligand exchange, beta2m ELISA). To be noted: peptide exchange yield. An excerpt:
Candidate peptides for T cell based therapies according to the present invention were further tested for their MHC binding capacity (affinity). The individual peptide-MHC complexes were produced by UV-ligand exchange, where a UV-sensitive peptide is cleaved upon UV-irradiation, and exchanged with the peptide of interest as analyzed. Only peptide candidates that can effectively bind and stabilize the peptide-receptive MHC molecules prevent dissociation of the MHC complexes. To determine the yield of the exchange reaction, an ELISA was performed based on the detection of the light chain (β2m) of stabilized MHC complexes. The assay was performed as generally described in Rodenko et al. (Rodenko et al., 2006).
96 well MAXISorp plates (NUNC) were coated over night with 2 ug/ml streptavidin in PBS at room temperature, washed 4× and blocked for 1 h at 37° C. in 2% BSA containing blocking buffer. Refolded HLA-A*02:01/MLA-001 monomers served as standards, covering the range of 15-500 ng/ml. Peptide-MHC monomers of the UV-exchange reaction were diluted 100-fold in blocking buffer. Samples were incubated for 1 h at 37° C., washed four times, incubated with 2 ug/ml HRP conjugated anti-β2m for 1h at 37° C., washed again and detected with TMB solution that is stopped with […]. Absorption was measured at 450 nm. Candidate peptides that show a high exchange yield (preferably higher than 50%, most preferred higher than 75%) are generally preferred for a generation and production of antibodies or fragments thereof, and/or T cell receptors or fragments thereof, as they show sufficient avidity to the MHC molecules and prevent dissociation of the MHC complexes.
Background: ELISA stands for enzyme-linked immunosorbent assay.
In the case of “323 (RPMPNLRSV; listed as Homo sapiens) [compound 323]”, the Peptide exchange entry is ““+++” (>50 = +++)”. For the substance “349 (MPSLSEAMTSF; listed as Homo sapiens) [compound 349]”, the Peptide exchange result is reported as ““+++” (>50 = +++)”. For “32 (SPNKGTLSV; listed as Homo sapiens) [compound 32]”, the Peptide exchange result is ““+++” (>50 = +++)”.

Take “120 (RPAMNYDKL; listed as Homo sapiens) [compound 120]”: the Peptide exchange result is listed as ““++” (>20% = ++)”. In the case of “297 (TVREASGLL; listed as Homo sapiens) [compound 297]” it was ““+++” (>50 = +++)”. Regarding “312 (LPYFREFSM; listed as Homo sapiens) [compound 312]”, the Peptide exchange entry is given as ““+++” (>50 = +++)”.

In the case of “122 (YPGFPQSQY; listed as Homo sapiens) [compound 122]”, the Peptide exchange result is ““++” (>20% = ++)”. Turning to “294 (YPLRGSSIF; listed as Homo sapiens) [compound 294]”, the Peptide exchange result is on record as ““+++” (>50 = +++)”. On to “333 (FPHSEMTTVM; listed as Homo sapiens) [compound 333]”, for which the Peptide exchange entry is given as ““+++” (>50 = +++)”. “355 (SPLVTSHIM; listed as Homo sapiens) [compound 355]”: the Peptide exchange result is given as ““+++” (>50 = +++)”. Consider “351 (NVLTSTPAF; listed as Homo sapiens) [compound 351]”, for which the Peptide exchange result is listed as ““++” (>20% = ++)”. Take “334 (FPYSEVTTL; listed as Homo sapiens) [compound 334]”: the Peptide exchange result is reported as ““+++” (>50 = +++)”.

With “303 (LPMWKVTAF; listed as Homo sapiens) [compound 303]”, the Peptide exchange result is recorded as ““+++” (>50 = +++)”.

Regarding “326 (VPSEIDAAF; listed as Homo sapiens) [compound 326]”, the Peptide exchange entry is on record as ““++” (>20% = ++)”. For the substance “308 (YPEGAAYEF; listed as Homo sapiens) [compound 308]”, the Peptide exchange entry is ““++” (>20% = ++)”.

For the substance “293 (VPDSGATATAY; listed as Homo sapiens) [compound 293]”, the Peptide exchange result is ““++” (>20% = ++)”. On to “40 (KPGTSYRVTL; listed as Homo sapiens) [compound 40]”, for which the Peptide exchange result is recorded as ““+++” (>50 = +++)”. As to “343 (LPSVSGVKTTF; listed as Homo sapiens) [compound 343]”, the Peptide exchange result was ““++” (>20% = ++)”. In the case of “301 (SPRRSPRISF; listed as Homo sapiens) [compound 301]” it was ““++” (>20% = ++)”. In the case of “126 (KPGPEDKL; listed as Homo sapiens) [compound 126]” it was ““++” (>20% = ++)”. On to “340 (LPEISTRTM; listed as Homo sapiens) [compound 340]”, for which the Peptide exchange entry is listed as ““++” (>20% = ++)”.

As to “378 (RPRSPAGQVAA; listed as Homo sapiens) [compound 378]”, the Peptide exchange entry is ““+++” (>50 = +++)”. Take “124 (LPSDSHFKITF; listed as Homo sapiens) [compound 124]”: the Peptide exchange entry is ““+++” (>50 = +++)”.

For “384 (YPGLRGSPM; listed as Homo sapiens) [compound 384]”, the Peptide exchange result is on record as ““++++” (>75% = ++++)”. “361 (SPTHVTQSL; listed as Homo sapiens) [compound 361]”: the Peptide exchange result was ““+++” (>50 = +++)”. In the case of “146 (IPRPEVQAL; listed as Homo sapiens) [compound 146]” it was ““+++” (>50 = +++)”; in that of “342 (LPLGTSMTF; listed as Homo sapiens) [compound 342]”, ““+++” (>50 = +++)”; in that of “316 (EPKTATVL; listed as Homo sapiens) [compound 316]”, ““++” (>20% = ++)”.

Take “133 (MPNLPSTTSL; listed as Homo sapiens) [compound 133]”: the Peptide exchange entry was ““+++” (>50 = +++)”. For “373 (RPRALRDLRIL; listed as Homo sapiens) [compound 373]”, the Peptide exchange entry was ““+++” (>50 = +++)”. The value for “327 (SPLPVTSLI; listed as Homo sapiens) [compound 327]” was ““+++” (>50 = +++)”; that for “336 (HPKTESATPAAY; listed as Homo sapiens) [compound 336]” was ““++” (>20% = ++)”; that for “348 (MPNSAIPFSM; listed as Homo sapiens) [compound 348]” was ““+++” (>50 = +++)”. The value for “300 (IPMAAVKQAL; listed as Homo sapiens) [compound 300]” was ““+++” (>50 = +++)”; that for “140 (SPRTEASSAVL; listed as Homo sapiens) [compound 140]” was ““+++” (>50 = +++)”; that for “141 (SPMTSLLTSGL; listed as Homo sapiens) [compound 141]” was ““+++” (>50 = +++)”. “372 (IPRNPPPTLL; listed as Homo sapiens) [compound 372]”: the Peptide exchange result is given as ““+++” (>50 = +++)”. As to “346 (LPWDTSTTLF; listed as Homo sapiens) [compound 346]”, the Peptide exchange result was ““+++” (>50 = +++)”.

For “319 (SPAEPSVYATL; listed as Homo sapiens) [compound 319]”, the Peptide exchange result is on record as ““++++” (>75% = ++++)”. Regarding “325 (GPRNAQRVL; listed as Homo sapiens) [compound 325]”, the Peptide exchange entry was ““+++” (>50 = +++)”. The value for “317 (FPFQPGSV; listed as Homo sapiens) [compound 317]” was ““+++” (>50 = +++)”; that for “347 (MPLTTGSQGM; listed as Homo sapiens) [compound 347]” was ““++” (>20% = ++)”; that for “136 (SPFSAEEANSL; listed as Homo sapiens) [compound 136]” was ““+++” (>50 = +++)”. Regarding “350 (NPSSTTTEF; listed as Homo sapiens) [compound 350]”, the Peptide exchange entry is on record as ““+++” (>50 = +++)”. For the substance “149 (GPREALSRL; listed as Homo sapiens) [compound 149]”, the Peptide exchange entry is ““+++” (>50 = +++)”.

“328 (EPVTSSLPNF; listed as Homo sapiens) [compound 328]”: the Peptide exchange result is ““++” (>20% = ++)”. The value for “138 (SPMATTSTL; listed as Homo sapiens) [compound 138]” was ““+++” (>50 = +++)”; that for “362 (SPVPVTSLF; listed as Homo sapiens) [compound 362]” was ““+++” (>50 = +++)”.

In the case of “35 (FPDNQRPAL; listed as Homo sapiens) [compound 35]”, the Peptide exchange result is recorded as ““+++” (>50 = +++)”. Consider “36 (APAAWLRSA; listed as Homo sapiens) [compound 36]”, for which the Peptide exchange entry is reported as ““++” (>20% = ++)”. The value for “129 (APRPASSL; listed as Homo sapiens) [compound 129]” was ““+++” (>50 = +++)”; that for “341 (LPLDTSTTL; listed as Homo sapiens) [compound 341]” was ““+++” (>50 = +++)”; that for “387 (APLKLSRTPA; listed as Homo sapiens) [compound 387]” was ““+++” (>50 = +++)”. Regarding “123 (KPSESIYSAL; listed as Homo sapiens) [compound 123]”, the Peptide exchange result was ““+++” (>50 = +++)”.

With “371 (LYVDGFTHW; listed as Homo sapiens) [compound 371]”, the Peptide exchange entry is listed as ““++” (>20% = ++)”. In the case of “143 (SPAMTSTSF; listed as Homo sapiens) [compound 143]” it was ““++” (>20% = ++)”; in that of “390 (NPDLRRNVL; listed as Homo sapiens) [compound 390]”, ““+++” (>50 = +++)”; in that of “128 (YPRTITPGM; listed as Homo sapiens) [compound 128]”, ““+++” (>50 = +++)”. With “320 (FPMSPVTSV; listed as Homo sapiens) [compound 320]”, the Peptide exchange entry is on record as ““+++” (>50 = +++)”. In the case of “335 (HPDPVGPGL; listed as Homo sapiens) [compound 335]” it was ““++” (>20% = ++)”; in that of “37 (RPLFQKSSM; listed as Homo sapiens) [compound 37]”, ““+++” (>50 = +++)”.

“338 (HVTKTQATF; listed as Homo sapiens) [compound 338]”: the Peptide exchange result is listed as ““++” (>20% = ++)”. With “388 (SPAPLKLSRTPA; listed as Homo sapiens) [compound 388]”, the Peptide exchange entry is on record as ““++” (>20% = ++)”. For “305 (TPWAESSTKF; listed as Homo sapiens) [compound 305]”, the Peptide exchange entry is ““++” (>20% = ++)”. For “386 (FPFNPLDF; listed as Homo sapiens) [compound 386]”, the Peptide exchange result was ““++” (>20% = ++)”. In the case of “127 (APRAGSQVV; listed as Homo sapiens) [compound 127]” it was ““+++” (>50 = +++)”.
